Biological target: ataxia-telangiectasia mutated (ATM) kinase, full-length human (human) (UniProt Q13315)
Test: negative-stain single-particle electron microscopy
Details: remark: other sources report otherwise

Substance: ataxia-telangiectasia mutated (ATM) kinase, full-length human, Q13315 1-3056
- percent of the particles that are dimers (% of the particles): 60
